Kd data for one molecule are collected here from PMC3815026, “Serglycin Is Implicated in the Promotion of Aggressive Phenotype of Breast Cancer Cells” (PLoS ONE, 2013).

One experiment deals with T1, mannose-binding lectin (UniProt P11226 21-248).
T1 construct: Neither the species nor the oligomeric state is stated; Human MBL is surmised; also called MBL; source: bought: Statens Serum Institute (Denmark)
Kind of experiment: ELISA; solid phase binding assay: microtiter plates coated with 5 µg/ml serglycin (as GAG content), blocked with 1% BSA; C1q or MBL added at increasing concentrations in 50 mM Hepes pH 7.4, 150 mM NaCl, 2 mM CaCl2, 1 h at RT; bound protein detected with antibodies; KD from the slope of a Scatchard-type plot. The note with it: both partners purified. On the technique in general: ELISA stands for enzyme-linked immunosorbent assay.

For the next experiment, the target named is T2, C1q (UniProt P02745 23-245; P02746 28-253; P02747 29-245).
T2 construct: complement C1q subcomponent subunit A; complement C1q subcomponent subunit B; complement C1q subcomponent subunit C; also called complement component C1q; purified C1q; source: bought: Sigma-Aldrich; copies: + +
Described as above. The following applies: both partners purified.

T2 sequence (P02745 23-245, chain 1 of 3): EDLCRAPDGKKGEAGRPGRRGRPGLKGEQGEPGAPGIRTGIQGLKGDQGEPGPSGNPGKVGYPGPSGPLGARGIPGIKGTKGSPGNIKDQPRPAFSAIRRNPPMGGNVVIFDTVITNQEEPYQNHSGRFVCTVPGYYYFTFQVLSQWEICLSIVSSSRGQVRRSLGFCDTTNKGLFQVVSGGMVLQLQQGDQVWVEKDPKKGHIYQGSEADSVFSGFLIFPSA
T2 sequence (P02746 28-253, chain 2 of 3): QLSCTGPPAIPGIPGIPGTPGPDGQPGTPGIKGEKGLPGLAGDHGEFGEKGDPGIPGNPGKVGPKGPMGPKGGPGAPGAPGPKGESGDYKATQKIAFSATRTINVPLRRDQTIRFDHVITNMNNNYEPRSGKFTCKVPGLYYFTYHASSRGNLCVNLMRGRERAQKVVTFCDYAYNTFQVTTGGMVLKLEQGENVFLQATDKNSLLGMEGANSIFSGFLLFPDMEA
T2 sequence (P02747 29-245, chain 3 of 3): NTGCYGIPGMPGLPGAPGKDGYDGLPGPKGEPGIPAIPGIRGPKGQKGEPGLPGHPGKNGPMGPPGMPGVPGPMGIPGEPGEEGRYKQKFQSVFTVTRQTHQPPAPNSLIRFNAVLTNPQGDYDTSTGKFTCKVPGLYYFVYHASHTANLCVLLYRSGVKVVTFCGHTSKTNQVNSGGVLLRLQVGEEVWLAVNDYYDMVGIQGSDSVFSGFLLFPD
T1 sequence (P11226 21-248): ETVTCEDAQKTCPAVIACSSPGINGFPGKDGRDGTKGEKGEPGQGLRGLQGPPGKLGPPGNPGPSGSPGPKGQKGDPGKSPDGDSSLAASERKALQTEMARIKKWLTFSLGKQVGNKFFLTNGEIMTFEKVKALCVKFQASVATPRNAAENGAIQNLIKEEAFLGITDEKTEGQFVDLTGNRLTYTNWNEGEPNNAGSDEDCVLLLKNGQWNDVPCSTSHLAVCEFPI

B1: Serglycin isolated from conditioned medium of MDA-MB-231 breast cancer cells (total glycanated serglycin) (natural protein, human (endogenous in MDA-MB-231), UniProt P10124 28-158, looked up)
chain: YPTRRARYQWVRCNPDSNSANCLEEKGPMFELLPGESNKIPRLRTDLFPKTRIQDLNRIFPLSEDYSGSGFGSGSGSGSGSGSGFLTEMEQDYQLVDESDAFHDNLRSLDRNLPSDSQDLGQHGLEEDFML
modifications: chondroitin sulfate side chains (4-sulfated 87%, 6-sulfated 10%, non-sulfated 3% disaccharides)
notes: serglycin core protein, secreted proteoglycan of ~250-300 kDa, core protein seen at ~28 kDa after chondroitinase ABC; Proteoglycan: GAG content about 94.5% and core protein about 5.5% of the total mass; also called SG; breast cancer-derived serglycin; source: endogenous, secreted by MDA-MB-231 cells; purified from culture medium (DEAE-Sephacel, Sepharose CL-4B)
Turning to B1, the figures for the Kd in the experiment with mannose-binding lectin and with C1q were 48 nM and 20 nM, respectively.
